Paper PMC5068790

Tests used:
[1] = molecular target: mouse Slo1 (BK channel α subunit) (mouse) (UniProt Q08460)
[2] = molecular target: Drosophila Slo1 (BK channel α subunit) (Drosophila) (UniProt Q03720)
Chain of UniProt Q03720 (Q03720 whole entry): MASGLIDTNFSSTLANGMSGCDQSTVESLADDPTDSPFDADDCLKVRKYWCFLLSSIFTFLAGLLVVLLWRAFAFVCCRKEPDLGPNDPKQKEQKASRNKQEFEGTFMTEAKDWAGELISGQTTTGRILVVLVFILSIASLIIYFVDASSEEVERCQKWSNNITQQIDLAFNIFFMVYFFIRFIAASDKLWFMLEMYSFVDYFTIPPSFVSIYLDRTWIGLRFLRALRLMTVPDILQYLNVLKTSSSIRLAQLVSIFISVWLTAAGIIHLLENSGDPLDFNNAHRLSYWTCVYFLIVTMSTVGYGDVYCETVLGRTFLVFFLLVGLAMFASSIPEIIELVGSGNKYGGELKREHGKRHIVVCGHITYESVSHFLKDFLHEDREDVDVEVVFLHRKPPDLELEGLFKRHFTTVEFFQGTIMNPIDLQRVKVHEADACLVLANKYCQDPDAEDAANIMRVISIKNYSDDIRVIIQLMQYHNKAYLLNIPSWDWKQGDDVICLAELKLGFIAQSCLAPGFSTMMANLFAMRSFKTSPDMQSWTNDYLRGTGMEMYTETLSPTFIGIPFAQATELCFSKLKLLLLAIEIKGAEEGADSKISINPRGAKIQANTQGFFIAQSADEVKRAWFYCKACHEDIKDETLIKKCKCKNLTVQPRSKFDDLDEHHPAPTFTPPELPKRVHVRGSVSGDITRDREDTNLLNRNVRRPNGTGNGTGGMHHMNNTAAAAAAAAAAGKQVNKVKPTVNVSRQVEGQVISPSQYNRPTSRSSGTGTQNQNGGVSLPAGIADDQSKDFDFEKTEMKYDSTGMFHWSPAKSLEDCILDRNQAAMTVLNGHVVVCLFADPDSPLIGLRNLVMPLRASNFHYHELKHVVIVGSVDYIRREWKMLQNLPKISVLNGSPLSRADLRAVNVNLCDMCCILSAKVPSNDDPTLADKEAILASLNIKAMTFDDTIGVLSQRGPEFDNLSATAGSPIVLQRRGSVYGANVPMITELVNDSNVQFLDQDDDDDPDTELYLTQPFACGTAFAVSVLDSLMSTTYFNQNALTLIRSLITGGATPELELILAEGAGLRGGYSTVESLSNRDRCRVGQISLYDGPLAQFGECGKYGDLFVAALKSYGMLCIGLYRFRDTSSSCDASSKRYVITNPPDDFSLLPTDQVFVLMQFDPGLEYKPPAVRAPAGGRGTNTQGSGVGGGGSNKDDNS

Chain of UniProt Q08460 (Q08460 whole entry): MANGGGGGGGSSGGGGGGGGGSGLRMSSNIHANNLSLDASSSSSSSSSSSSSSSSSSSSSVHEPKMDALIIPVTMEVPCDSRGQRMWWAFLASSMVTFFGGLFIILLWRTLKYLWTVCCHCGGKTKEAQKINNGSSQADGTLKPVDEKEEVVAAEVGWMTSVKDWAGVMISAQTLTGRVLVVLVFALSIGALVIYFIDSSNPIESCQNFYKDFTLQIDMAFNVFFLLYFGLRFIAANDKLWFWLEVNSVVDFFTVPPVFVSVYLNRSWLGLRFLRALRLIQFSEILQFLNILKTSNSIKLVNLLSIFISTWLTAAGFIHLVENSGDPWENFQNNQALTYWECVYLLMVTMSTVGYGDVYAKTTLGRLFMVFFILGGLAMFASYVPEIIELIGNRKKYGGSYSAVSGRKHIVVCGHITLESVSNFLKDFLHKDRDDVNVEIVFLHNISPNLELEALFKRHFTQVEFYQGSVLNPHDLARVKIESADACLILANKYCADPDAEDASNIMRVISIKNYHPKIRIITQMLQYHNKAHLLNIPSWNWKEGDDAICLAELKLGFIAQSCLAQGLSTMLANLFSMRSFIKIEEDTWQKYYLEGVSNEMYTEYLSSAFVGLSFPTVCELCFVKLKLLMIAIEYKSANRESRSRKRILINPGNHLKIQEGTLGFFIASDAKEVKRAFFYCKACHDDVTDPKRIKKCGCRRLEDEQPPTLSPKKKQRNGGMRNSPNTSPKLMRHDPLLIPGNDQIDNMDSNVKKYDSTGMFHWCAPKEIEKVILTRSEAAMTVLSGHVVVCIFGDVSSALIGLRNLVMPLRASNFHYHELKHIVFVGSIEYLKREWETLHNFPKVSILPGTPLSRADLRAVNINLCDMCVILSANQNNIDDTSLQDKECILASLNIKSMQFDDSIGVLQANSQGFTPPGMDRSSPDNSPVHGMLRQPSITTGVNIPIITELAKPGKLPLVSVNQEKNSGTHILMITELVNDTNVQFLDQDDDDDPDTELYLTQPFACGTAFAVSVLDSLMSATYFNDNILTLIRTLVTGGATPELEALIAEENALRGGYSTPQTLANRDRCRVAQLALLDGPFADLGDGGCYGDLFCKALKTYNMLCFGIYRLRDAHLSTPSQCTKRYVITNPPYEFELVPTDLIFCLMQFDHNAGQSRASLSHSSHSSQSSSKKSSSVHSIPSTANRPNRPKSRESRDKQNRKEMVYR

B1: Δ3-β2 (β2 subunit with the inactivation ball FIW deleted) (natural protein)
chain: MTSGRTSSSYRHDEKRNIYQKIRDHDLLDKRKTVTALKAGEDRAILLGLAMMVCSIMMYFLLGITLLRSYMQSVWTEESQCTLLNASITETFNCSFSCGPDCWKLSQYPCLQVYVNLTSSGEKLLLYHTEETIKINQKCSYIPKCGKNFEESMSLVNVVMENFRKYQHFSCYSDPEGNQKSVILTKLYSSNVLFHSLFWPTCMMAGGVAIVAMVKLTQYLSLLCERIQRINR
- patch clamp, inside-out patches of HEK293 cells, α:β2 transfection ratio 1:0.2, 10 μM Ca2+: share of random tests with a left shift of V50 to −30 mV from about +25 mV (called binding rate) [1]: 100%
- patch clamp, inside-out patches of HEK293 cells, transfection ratio 1:0.2: share of random tests with slow activation (called β2 binding rate) [2]: 100%

B2: BK channel auxiliary β2 subunit (natural protein)
chain: MFIWTSGRTSSSYRHDEKRNIYQKIRDHDLLDKRKTVTALKAGEDRAILLGLAMMVCSIMMYFLLGITLLRSYMQSVWTEESQCTLLNASITETFNCSFSCGPDCWKLSQYPCLQVYVNLTSSGEKLLLYHTEETIKINQKCSYIPKCGKNFEESMSLVNVVMENFRKYQHFSCYSDPEGNQKSVILTKLYSSNVLFHSLFWPTCMMAGGVAIVAMVKLTQYLSLLCERIQRINR
- patch clamp, inside-out patches of HEK293 cells, α:β2 transfection ratio 1:0.2: share of random tests whose currents showed rapid and complete inactivation (called binding rate) [1]: 100%
- patch clamp, inside-out patches of HEK293 cells: share of random tests with inactivation or brief openings (β2 binding ratio) at α:β2 transfection ratios 1:0.2 (about 7%), 1:1, 1:4 and 1:8 [2]: 85%
